Reference: patent US20040133357A1 (ABMAXIS, published 2004)

Assays:
[1] = biological target: T1, purified recombinant human VEGF165 (human, UniProt P15692 27-191, glycosylated); test: SPR (BIAcore), scFv over VEGF immobilized on CM5 chip; reference hAB1
T1 construct: mature; Bought from Calbiochem; also called VEGF protein (Calbiochem); homodimeric VEGF protein
Description: (§1) Antibody fragments in the format of single chain were expressed as described below and purified. The measurement was done by measuring the change of SPR units (y-axis) vs time (x-axis) when a purified antibody binds its antigen (VEGF) immobilized on the CM5 biochip at 25° C. Kd values were calculated by the […].
(§2) BIAcore Biosensor Assay was used to determine antibody affinity. VEGF protein (purchased from Calbiochem) was coupled to a CM-5 biosensor ship by amine coupling. After immobilization, CM-5 chips with 200 to 1000 response unites of VEGF were kept at 4° C. before use. All experiments were performed at 25° C. or 35° C. Each sample in PBS buffer was injected over VEGF surface at a flow rate of 20 ul/min using Biacore 1000 (Biacore AB, Sweden), and bound antibodies were removed from chip by 10 ul of glycine-HCl, PH 1.5 at the end of each cycle. Each sensorgram was recorded and normalized to a PBS base line.

[2] = biological target: T1, purified recombinant human VEGF165; test: SPR (BIAcore), scFv over VEGF immobilized on CM5 chip, 25 C; reference hAB1
Description: as §2

[3] = biological target: T1, purified recombinant human VEGF165; test: SPR (BIAcore), purified scFv over VEGF immobilized on CM5 chip, 25 C
Description: as §1, §2

T1 sequence (P15692 other isoform, or with tags, fused parts or gaps limits assumed): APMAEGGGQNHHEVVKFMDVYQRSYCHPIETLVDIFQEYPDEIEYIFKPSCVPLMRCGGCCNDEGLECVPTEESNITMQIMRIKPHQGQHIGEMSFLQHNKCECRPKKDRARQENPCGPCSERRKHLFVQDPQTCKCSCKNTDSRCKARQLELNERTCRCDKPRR

fold higher binding affinity than hAB1 [1] [fold] | fold higher binding affinity than the parental/reference antibody (hAB1) [2] [fold] | Kd [3] [nM] | hAB1 Kd/Variant Kd [3] | koff [3] [s⁻¹] | kon [3] [M⁻¹ s⁻¹] | Binder
4 | ~4 | 3.1 | 4.2 | 0.000115 | 37400 | hAB3 (scFv, Single chain format; not shown: HA-His6 tag at C-terminus) scFv: EVQLVQSGGGVVQPGGSLRLSCAASGYTFTNYGMNWIRQAPGKGLEWVGWINTYTGEPTYAADFKRRVTFSLDTSKSTAYLQLNSLRAEDTAVYYCAKYPHYYGSSHWYFDVWGQGTLVTVSSGGGGSGGGGSGGGGSDIQMTQSPSSLSASVGDRVTITCSASQDISNYLNWYQQKPGKAPKVLIYFTSSLHSGVPSRFSGSGSGTDFTLTISSLQPEDFATYYCQQYSTVPWTFGQGTKVEIK
2 | – | 26 | 0.5 | 0.000104 | 4000 | hAB4 (scFv, Single chain format; not shown: HA-His6 tag at C-terminus) scFv: QVQLVQSGGGVVQPGGSLRLTCAASGYTFTNYGMNWVRQAPGKGLEWVGWINTYTGEPTYAADFKRRFTISLDTSKSQAYLQMNSLRAEDTAVYYCAKYPHYYGSSHWYFDVWGQGTLVTVSSGGGGSGGGGSGGGGSDIQMTQSPSSLSASVGDRVTITCSASQDISNYLNWYQQKPGKAPKVLIYFTSSLHSGVPSRFSGSGSGTDFTLTISSLQPEDFATYYCQQYSTVPWTFGQGTKVEIK
